In US20190359687A1 (Bayer, published 2019):
No end group written: not given here. *: point of attachment. Biotin = O=C1N[C@H]2[C@H](CS[C@H]2CCCCC(=O)*)N1

T1: GP5-11 alanine scanning peptide (human, N-terminal biotin)
T1 construct: GP5 with alanine at position 11
T1 peptide: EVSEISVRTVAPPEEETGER

T2: GP5-16 alanine scanning peptide (human, N-terminal biotin)
T2 construct: GP5 with alanine at position 16
T2 peptide: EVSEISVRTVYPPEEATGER

T3: GP5-13 alanine scanning peptide (human, N-terminal biotin)
T3 construct: GP5 with alanine at position 13
T3 peptide: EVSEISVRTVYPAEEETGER

T4: GP5-14 alanine scanning peptide (human, N-terminal biotin)
T4 construct: GP5 with alanine at position 14
T4 peptide: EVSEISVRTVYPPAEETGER

T5: GP8 peptide (human)
T5 peptide: Biotin-VRTVYPPE

T6: GP11 peptide (human)
T6 peptide: Biotin-VYPPEEET

T7: GP14 peptide (human)
T7 peptide: Biotin-PEEETGER

T8: GP13 peptide (human)
T8 peptide: Biotin-PPEEETGE

T9: GP15 peptide (human)
T9 peptide: Biotin-EEETGERV

T10: GP9 peptide (human)
T10 peptide: Biotin-RTVYPPEE

T11: GP16 peptide (human)
T11 peptide: Biotin-EETGERVQ

T12: GP10 peptide (human)
T12 peptide: Biotin-TVYPPEEE

T13: GP12 peptide (human)
T13 peptide: Biotin-YPPEEETG

T14: GP7 peptide (human)
T14 peptide: Biotin-SVRTVYPP

T15: B-domain deleted FVIII (human, UniProt P00451 20-2351)
T15 construct: control without scFv; also called BDD; BDD-FVIII
T15 sequence (looked up): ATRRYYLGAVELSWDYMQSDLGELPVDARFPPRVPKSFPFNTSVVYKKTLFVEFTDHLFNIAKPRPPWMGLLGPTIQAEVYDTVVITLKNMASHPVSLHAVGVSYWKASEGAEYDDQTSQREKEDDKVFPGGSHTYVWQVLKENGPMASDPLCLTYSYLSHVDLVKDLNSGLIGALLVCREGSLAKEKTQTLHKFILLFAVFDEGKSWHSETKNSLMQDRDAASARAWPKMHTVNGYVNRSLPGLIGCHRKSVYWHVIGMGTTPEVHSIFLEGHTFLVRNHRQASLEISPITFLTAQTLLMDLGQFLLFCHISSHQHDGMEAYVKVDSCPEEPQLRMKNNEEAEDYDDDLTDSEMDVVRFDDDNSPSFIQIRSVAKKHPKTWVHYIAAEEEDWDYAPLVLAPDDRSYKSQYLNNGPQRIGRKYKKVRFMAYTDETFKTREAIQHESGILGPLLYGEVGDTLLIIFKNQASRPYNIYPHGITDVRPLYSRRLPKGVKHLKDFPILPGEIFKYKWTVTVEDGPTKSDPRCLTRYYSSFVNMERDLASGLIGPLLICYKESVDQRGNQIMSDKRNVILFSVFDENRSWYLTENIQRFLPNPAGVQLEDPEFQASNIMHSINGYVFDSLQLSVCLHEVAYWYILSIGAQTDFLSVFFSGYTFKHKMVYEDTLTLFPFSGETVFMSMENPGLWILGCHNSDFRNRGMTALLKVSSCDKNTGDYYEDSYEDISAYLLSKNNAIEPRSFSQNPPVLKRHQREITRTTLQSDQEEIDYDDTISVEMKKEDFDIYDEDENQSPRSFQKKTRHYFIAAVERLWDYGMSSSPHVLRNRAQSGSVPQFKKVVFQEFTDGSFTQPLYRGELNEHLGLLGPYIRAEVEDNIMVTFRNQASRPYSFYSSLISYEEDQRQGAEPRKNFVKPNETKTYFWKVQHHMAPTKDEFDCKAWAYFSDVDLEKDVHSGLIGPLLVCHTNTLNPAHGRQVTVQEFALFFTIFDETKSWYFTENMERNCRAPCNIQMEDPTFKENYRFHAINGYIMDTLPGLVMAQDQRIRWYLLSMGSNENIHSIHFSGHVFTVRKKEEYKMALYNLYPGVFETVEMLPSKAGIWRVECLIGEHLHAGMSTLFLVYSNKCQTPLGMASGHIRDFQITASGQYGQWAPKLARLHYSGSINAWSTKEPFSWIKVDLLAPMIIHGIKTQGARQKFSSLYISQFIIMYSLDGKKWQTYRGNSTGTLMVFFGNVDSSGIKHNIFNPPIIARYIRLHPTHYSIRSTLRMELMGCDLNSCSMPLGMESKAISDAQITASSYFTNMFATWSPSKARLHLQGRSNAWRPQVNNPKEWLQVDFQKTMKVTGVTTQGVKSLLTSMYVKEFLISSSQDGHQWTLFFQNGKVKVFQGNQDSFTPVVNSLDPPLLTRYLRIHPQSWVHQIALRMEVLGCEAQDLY

B1: TPP-5906 Fab (Fab, V domains shown)
VH: EVQLVQSGAEVKKPGASVKVSCKASGYTFTTYTIHWVRQAPGQGLEWMGYINPSSGYTRYNPKFKGRVTMTRDKSTSTAYMELRSLRSDDTAVYYCQTGTRDYWGQGTTVTVSS
VL: DIQLTQSPSFLSASVGDRVTITCRASSSVSYIYWFQQKPGKAPKLLIYATSTLQSGVPSRFSGSGSGTEYTLTISSLQPEDFATYYCHQRNSFPYTFGQGTKLEIKR
notes: also called parental humanized and germlined 6C12 Fab
B2: human glycophorin A in the red blood cell membrane (other, UniProt P02724 20-150, looked up)
chain: LSTTEVAMHTSTSSSVTKSYISSQTNDTHKRDTYAATPRAHEVSEISVRTVYPPEEETGERVQLAHHFSEPEITLIIFGVMAGVIGTILLISYGIRRLIKKSPSDVKPLPSPDTDVPLSSVEIENPETSDQ
notes: whole, on cells; used for intact RBC, isolated RBC membranes and transfected cells; the assay field tells which; also called GPA; hGPA

What was measured:
[1] = molecular target: B2; test: SPR, human RBC membranes, Fab
Description: Kinetic analysis of the antibody binding to human red blood cell membranes was also performed using surface plasmon resonance (SPR) using a Biacore instrument. In this assay membranes prepared from human red blood cells were attached to a L1 sensor matrix and antibodies were flowed over the RBC membranes.

[2] = molecular target: T1, GP5-11 alanine scanning peptide; test: alanine scanning peptide ELISA
[3] = molecular target: T2, GP5-16 alanine scanning peptide; test: alanine scanning peptide ELISA
[4] = molecular target: T3, GP5-13 alanine scanning peptide; test: alanine scanning peptide ELISA
[5] = molecular target: T4, GP5-14 alanine scanning peptide; test: alanine scanning peptide ELISA
GP8 peptide = molecular target: T5, GP8 peptide; test: peptide ELISA, Fab
Excerpt: (§1) These peptides were attached to the surface of a streptavidin coated plate via a biotin moiety that was present at the N-terminus of each peptide.

GP11 peptide = molecular target: T6, GP11 peptide; test: peptide ELISA, Fab
Excerpt: as §1

GP14 peptide = molecular target: T7, GP14 peptide; test: peptide ELISA, Fab
Excerpt: as §1

GP13 peptide = molecular target: T8, GP13 peptide; test: peptide ELISA, Fab
Excerpt: as §1

GP15 peptide = molecular target: T9, GP15 peptide; test: peptide ELISA, Fab
Excerpt: as §1

GP9 peptide = molecular target: T10, GP9 peptide; test: peptide ELISA, Fab
Excerpt: as §1

GP16 peptide = molecular target: T11, GP16 peptide; test: peptide ELISA, Fab
Excerpt: as §1

GP10 peptide = molecular target: T12, GP10 peptide; test: peptide ELISA, Fab
Excerpt: as §1

GP12 peptide = molecular target: T13, GP12 peptide; test: peptide ELISA, Fab
Excerpt: as §1

GP7 peptide = molecular target: T14, GP7 peptide; test: peptide ELISA, Fab
Excerpt: as §1

B-domain deleted FVIII = molecular target: T15, B-domain deleted FVIII; test: RBC partition assay, FVIII activity left in plasma

fold improvement of affinity against the parental antibody [1] [fold]	percent reduction of binding [2] [%]	percent reduction of binding [3] [%]	percent reduction of binding [4] [%]	percent reduction of binding [5] [%]	binding result (GP8 peptide)	binding result (GP11 peptide)	binding result (GP14 peptide)	binding result (GP13 peptide)	binding result (GP15 peptide)	binding result (GP9 peptide)	binding result (GP16 peptide)	binding result (GP10 peptide)	binding result (GP12 peptide)	binding result (GP7 peptide)	binding result (B-domain deleted FVIII)	Binder
~200	> 95	50	70	> 95	no binding (tested: 0.5 ug/ml)	no binding (tested: 0.5 ug/ml)	no binding (tested: 0.5 ug/ml)	no binding (tested: 0.5 ug/ml)	no binding (tested: 0.5 ug/ml)	no binding (tested: 0.5 ug/ml)	no binding (tested: 0.5 ug/ml)	no binding (tested: 0.5 ug/ml)	no binding (tested: 0.5 ug/ml)	no binding (tested: 0.5 ug/ml)		B1
															no binding (tested: 1 IU/mL)	B2
